The record followed here is PMC3288308.

Like-named read-outs stand apart in the source and are kept apart here.

Assay [1] addresses Treponema pallidum adhesin protein fragment rTp0483 (recombinant C-terminal portion of Tp0483) (Treponema pallidum). The experiment in a line: SPR. (In general: In SPR one partner is held on a chip, and binding of the other changes the refractive index at the surface.)
The target is the same in assay [2]. As to the kind of experiment: quartz crystal microbalance.
Assay [3] has the same target. The experiment in a line: SPR. The source holds these as a separate data set.
Assay [4] has the same target. The experiment in a line: SPR. The source holds these as a separate data set.
Assay [5] shares this target. As to the kind of experiment: SPR. This is another data set of the same source.
The target is the same in assay [6]. As to the kind of experiment: quartz crystal microbalance. This is another data set of the same source.
Assay [7] has the same target. The experiment in a line: quartz crystal microbalance. This is another data set of the same source.
For assay [8] the target is unchanged. The experiment in a line: quartz crystal microbalance. This is another data set of the same source.
For assay [9], the target named is Human plasma fibronectin (human). As to the kind of experiment: SPR.

Sequence of Treponema pallidum adhesin protein fragment rTp0483 (recombinant C-terminal portion of Tp0483) (Treponema pallidum) (O83496 22-374): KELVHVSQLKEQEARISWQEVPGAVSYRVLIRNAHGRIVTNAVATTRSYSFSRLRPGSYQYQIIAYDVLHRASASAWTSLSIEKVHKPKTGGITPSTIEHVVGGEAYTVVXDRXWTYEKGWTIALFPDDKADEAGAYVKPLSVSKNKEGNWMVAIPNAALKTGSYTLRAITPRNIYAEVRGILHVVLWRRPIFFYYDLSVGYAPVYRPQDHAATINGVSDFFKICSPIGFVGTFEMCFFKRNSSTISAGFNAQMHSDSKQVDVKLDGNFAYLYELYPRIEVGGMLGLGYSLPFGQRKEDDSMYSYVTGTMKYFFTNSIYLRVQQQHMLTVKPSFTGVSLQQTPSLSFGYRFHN

For the substance “Human plasma fibronectin (natural protein)”, in assay [1], the KA2 (bivalent analyte model, reaction 2) is 0.0403 1/RU and the KD1 (inverse of KA1, reaction 1 of the bivalent analyte model) was 0.97 nM. In addition, the surface mass density of FN bound (QCM) in [2] came out at 363 pg/mm^2. Also, in [3], the KA2 (bivalent analyte model, reaction 2) is 0.0225 1/RU and the KD1 (inverse of KA1, reaction 1 of the bivalent analyte model) stood at 0.65 nM. Moreover, in [4], the KA1 (bivalent analyte model, reaction 1) is 1.03e+09 M⁻¹; the KA2 (bivalent analyte model, reaction 2) is 403 1/RU; the surface mass density of FN bound (SPR) in the presence of anti-Tp0483#1 was 373 pg/mm^2; the surface mass density of FN bound (SPR) in the presence of anti-Tp0483#2 came out at 270 pg/mm^2. In assay [4], the surface mass density of FN bound (SPR), FN alone was 282 pg/mm^2; the surface mass density of FN bound (SPR), FN preincubated with 20 µg/mL anti-RGD came out at 91 pg/mm^2; the surface mass density of FN bound (SPR), FN preincubated with 50 µg/mL anti-RGD was 47 pg/mm^2; the surface mass density of FN bound (SPR), no antibody was 846 pg/mm^2. Moreover, in assay [5], the KA1 (bivalent analyte model, reaction 1) worked out at 1.53e+09 M⁻¹ and the KA2 (bivalent analyte model, reaction 2) was 225 1/RU. Also, in assay [6], the surface mass density of FN bound (QCM) was 3.5 pg/mm^2. For the same substance, the surface mass density of FN bound (QCM) in assay [7] turned out to be 1380 pg/mm^2. In addition, the surface mass density of FN bound (QCM) in assay [8] is 60 pg/mm^2.

In the case of “Peptide D2, residues 316-333 of the complete Tp0483 sequence”, in [9], the % FN binding to rTp0483 with the peptide, of FN alone was 88%.

On to Type A gelatin, for which, in [9], the surface mass density of gelatin bound (SPR) on FN adsorbed on the SAM came out at 940 pg/mm^2 and the surface mass density of gelatin bound (SPR) on rTp0483+FN worked out at 211 pg/mm^2.
